These substances were tested against HLA-DR1 (DRA*01:01/DRB1*01:01) extracellular domain (human) (assay: fluorescence polarisation).
“photoHA photocleavable peptide (PRYVKxNTLRLAT)” gave an IC50 of 0.092 µM.
“Ac-photoHAΔ1–2 photocleavable peptide (Ac-YVKxNTLRLAT)” showed an IC50 of 0.227 µM.
“HA peptide (unlabeled, non-photocleavable), HA306-318-derived” was tested, and the IC50 was 0.04 µM.
With “photoHAΔ1–2 photocleavable peptide (YVKxNTLRLAT)” the IC50 was 1.04 µM.
For “Ac-photoHA photocleavable peptide (Ac-PRYVKxNTLRLAT)”, the IC50 was 0.134 µM.

From article PMC6028098, “The N-terminal region of photocleavable peptides that bind HLA-DR1 determines the kinetics of fragment release” (PLoS ONE, 2018)
